Assay results from PMC5080440.

What was measured:
[1] = target: TagRFP-T-CENP-C with the talin rod domain inserted into the middle (internal CENP-C-TR reporter) (Drosophila melanogaster | chicken) (UniProt P54939); test: quantitative two-colour fluorescence imaging of recruitment to kinetochores in live cells; S2 cells co-expressing VH-EGFP and TagRFP-T-CENP-C-TR; 25 uM colchicine (unattached kinetochores, low/no force); VH-EGFP to TagRFP-T ratio divided by the correction ratio from TagRFP-T-CENP-C-EGFP; 25 °C
[2] = target: TagRFP-T-CENP-C with the talin rod domain at the C terminus (C-terminal CENP-C-TR control reporter) (Drosophila melanogaster | chicken) (UniProt P54939); test: as above
[3] = target: TagRFP-T-CENP-C with the talin rod domain inserted into the middle (internal CENP-C-TR reporter) (Drosophila melanogaster | chicken) (UniProt P54939); test: quantitative two-colour fluorescence imaging of recruitment to kinetochores in live cells; S2 cells co-expressing VH-EGFP and TagRFP-T-CENP-C-TR; metaphase cells, 0.1% DMSO (bioriented kinetochores, under force); VH-EGFP to TagRFP-T ratio divided by the correction ratio from TagRFP-T-CENP-C-EGFP; 25 °C

stoichiometry N (VH-EGFP molecules per TR) [1]: 0.9
stoichiometry N (VH molecules per TR) [2]: 0.75
stoichiometry N (VH molecules per CENP-C-TR) [3]: 1.3
B1: vinculin head domain (aa 1-258) fused to EGFP (domain or fragment)
chain: MPVFHTRTIESILEPVAQQISHLVIMHEEGEVDGKAIPDLTAPVSAVQAAVSNLVRVGKETVQTTEDQILKRDMPPAFIKVENACTKLVRAAQMLQADPYSVPARDYLIDGSRGILSGTSDLLLTFDEAEVRKIIRVCKGILEYLTVAEVVETMEDLVTYTKNLGPGMTKMAKMIDERQQELTHQEHRVMLVNSMNTVKELLPVLISAMKIFVTTKNTKSQGIEEALKNRNFTVEKMSAEINEIIRVLQLTSWDEDAW
